Assay results from PMC3961693.

Biological target: IL-6 (human) (UniProt P05231)
Details: 32 nt; six 2'-O-methyl; eight Bn-dU; one Pe-dU; one Nap-dU (position 12); Bn-dU at 7, 8, 14, 15, 22, 23, 27, 30 named in text; binding assay method and buffer not given in the …

Sequence of IL-6 (human) (P05231 30-212): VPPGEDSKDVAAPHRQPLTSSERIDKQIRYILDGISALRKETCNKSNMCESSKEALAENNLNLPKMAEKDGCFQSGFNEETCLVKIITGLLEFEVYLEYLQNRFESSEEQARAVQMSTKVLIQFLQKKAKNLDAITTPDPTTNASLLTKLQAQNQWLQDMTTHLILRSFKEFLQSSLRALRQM

## GGCAGGUUUGGUAUUAACACGUUAAGUCGUGG [SL1025]
  Kd: 0.2 nM
